Here are results for one substance from paper PMC10847046.

This experiment addresses M66/StcE (Yersinia entomophaga (endogenous in the ΔLC derivative of MH96)). The experiment is described as follows: cryo-EM structure.

With M66/StcE (enzyme), the stoichiometry N turned out to be 4.
